Assays:
[1] = DSP crosslink, soluble vs pellet fractions, WB, HeLa; details: control: DMSO vehicle
[2] = IRBP-SEAP reporter in HeLa, normalised to EV; details: glycan lost; control: WT OTX2, untreated

Substance: OTX2: OSMI4
- other: solubility (aggregation) ([1]; glycan lost): decreases
- other: transcriptional activity [2]: no change

Substance: OTX2: Thiamet-G
- other: solubility (aggregation) ([1]; glycan gained): increases
